Measurements taken from publication PMC10705379 (bioRxiv, 2023).
Numbering of substitutions follows the chain as printed. Numbers in names are those of the source. Each block holds one molecule with its values, some of them ahead of it.

How the values were obtained:
H3K9me3 mononucleosomes = experiment: native gel or EMSA
[1] = system: Swi6-WT (Schizosaccharomyces pombe); experiment: EMSA; conditions: histone H3K9me3
mass photometry = target: the molecule itself; experiment: mass photometry
MBP-Epe1 = target: T1, MBP-Epe1 (S. pombe, UniProt O94603 1-948); experiment: pull-down
T1 sequence: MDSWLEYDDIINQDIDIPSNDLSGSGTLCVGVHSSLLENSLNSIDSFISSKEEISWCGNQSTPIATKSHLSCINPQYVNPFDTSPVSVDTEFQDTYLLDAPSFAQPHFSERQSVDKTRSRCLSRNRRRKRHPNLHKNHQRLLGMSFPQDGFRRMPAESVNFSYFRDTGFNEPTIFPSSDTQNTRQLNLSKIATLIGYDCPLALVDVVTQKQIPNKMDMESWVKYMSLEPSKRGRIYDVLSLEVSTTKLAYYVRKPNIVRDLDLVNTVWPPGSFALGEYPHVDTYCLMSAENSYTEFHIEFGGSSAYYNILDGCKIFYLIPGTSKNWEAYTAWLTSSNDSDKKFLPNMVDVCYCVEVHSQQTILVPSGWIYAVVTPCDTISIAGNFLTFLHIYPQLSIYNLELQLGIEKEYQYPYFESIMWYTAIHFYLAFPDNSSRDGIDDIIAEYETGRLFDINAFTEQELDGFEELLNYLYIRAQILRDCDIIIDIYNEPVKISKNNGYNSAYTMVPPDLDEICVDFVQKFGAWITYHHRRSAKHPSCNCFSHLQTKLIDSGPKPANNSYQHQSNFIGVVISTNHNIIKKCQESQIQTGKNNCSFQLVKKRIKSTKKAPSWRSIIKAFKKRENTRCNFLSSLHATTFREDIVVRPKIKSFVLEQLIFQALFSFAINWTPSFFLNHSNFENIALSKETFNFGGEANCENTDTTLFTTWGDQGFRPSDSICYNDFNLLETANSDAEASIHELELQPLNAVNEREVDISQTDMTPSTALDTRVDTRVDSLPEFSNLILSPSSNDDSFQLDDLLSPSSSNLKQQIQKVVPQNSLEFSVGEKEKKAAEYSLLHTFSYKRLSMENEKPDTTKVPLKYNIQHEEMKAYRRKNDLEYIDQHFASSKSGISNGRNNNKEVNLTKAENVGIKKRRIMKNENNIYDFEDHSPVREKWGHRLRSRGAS

Kd (H3K9me3 mononucleosomes): 39 nM
specificity for H3K9me3 over H3K9me0 mononucleosomes (H3K9me3 mononucleosomes): 2.3 fold
Molecule: Swi6-T278Y (recombinant, full length) (from UniProt P40381 1-328) (natural protein)

Molecule: H3K9me3 mononucleosome (Epicypher 16-0315-20)
Kd [1]: 50 nM

Kd (H3K9me3 mononucleosomes): 50 nM
specificity for H3K9me3 over H3K9me0 mononucleosomes (H3K9me3 mononucleosomes): 2.4 fold
B1: Swi6-WT (recombinant, full length) (natural protein)
chain: MKKGGVRSYRRSSTSKRSVIDDDSEPELPSMTKEAIASHKADSGSSDNEVESDHESKSSSKKLKENAKEEEGGEEEEEDEYVVEKVLKHRMARKGGGYEYLLKWEGYDDPSDNTWSSEADCSGCKQLIEAYWNEHGGRPEPSKRKRTARPKKPEAKEPSPKSRKTDEDKHDKDSNEKIEDVNEKTIKFADKSQEEFNENGPPSGQPNGHIESDNESKSPSQKESNESEDIQIAETPSNVTPKKKPSPEVPKLPDNRELTVKQVENYDSWEDLVSSIDTIERKDDGTLEIYLTWKNGAISHHPSTITNKKCPQKMLQFYESHLTFRENE
Kd (mass photometry): 0.38 nM
stoichiometry N (mass photometry): 2

B2: Swi6-T278K (recombinant, full length) (natural protein)
chain: B1 chain with T278K
Kd (mass photometry): 0.2 nM
stoichiometry N (mass photometry): 2

binding result (MBP-Epe1): binds
B3: FLAG-Swi6-WT (recombinant) (natural protein)
chain: B1 chain

B4: Swi6-T278Y (recombinant, full length) (natural protein)
chain: B1 chain with T278Y
Kd (mass photometry): 0.27 nM
stoichiometry N (mass photometry): 2
